Data as given in the Human Domainome abundance scans (Beltran et al. 2025).

B1: Gamma-crystallin S, residues 96 to 176; numbered along this chain, P22914 (parent)
chain: IQIFEKGDFSGQMYETTEDCPSIMEQFHMREIHSCKVLEGVWIFYELPNYRGRQYLLDKKEYRKPIDWGAASPAVQSFRRI
B2: Homeobox protein cut-like 2, residues 895 to 963; numbered along this chain, O14529 (parent)
chain: EVDTLELTRQVKEKLAKNGICQRIFGEKVLGLSQGSVSDMLSRPKPWSKLTQKGREPFIRMQLWLSDQL

Variants of: B1
Test: abundance fitness (aPCA) (normalised: wild type 0, dead -1); higher = more abundant; growth selection in yeast, the domain comes from the species named
Settings: Homo sapiens

Abundance fitness, by site and new letter:
R80: H -0.573, G 0.028, Y -0.919, L 0.02, C 0.059, E -0.253, V 0.062, Q -0.491, S -0.023, A -0.381
I81: D 0.114, C 0.106, K -0.186, Q 0.045, M -0.31, S -0.043, N 0.165, L -0.065, E 0.026, R -0.074
R79: A 0.147, E -0.191, K -0.358, W -0.419, I -0.294, G -0.413, S -0.036, M -0.346, T 0.021, Q -0.058, V -0.596, L -0.406
F78: L 0.059, P -0.869, R -1.11, K -0.771, Y -0.023, I -0.228, V -0.039, S -0.37

Variants of: B2
Test: as above
Settings: Homo sapiens

Abundance fitness, by site and new letter:
L5: N 0.046, F 0.025, T 0.015, P -0.076, M 0.122, G -0.061, R -0.039, W -0.021, K 0.102, Y -0.033, D -0.146, V 0.015, A 0.028, S -0.231, C -0.03, I 0.024, E 0.083
T8: D -0.214, K -0.063, W -0.206, H -0.19, Y -0.309, I -0.107, L -0.157, F -0.143, S -0.115, V 0.041, R -0.136, P -0.185, C -0.022, G -0.204, N -0.158, Q -0.333, E -0.242, A -0.064
N18: I -0.101, V -0.075, F -0.065, H 0.001, G -0.098, L 0.115, T 0.022, E 0.045, R 0.013, C -0.354, Q -0.016, K 0.04, D -0.153, A -0.119
A16: S 0.008, N -0.189, Y -0.234, I -0.313, L -0.109, F -0.198, K 0.001, C -0.106, Q -0.063, M -0.048, D -0.055, P -0.18, R 0.036, E -0.1, T -0.062
T4: A -0.334, Y -0.468, D -0.092, V -0.221, K -0.14, C -0.3, Q -0.254, L -0.215, P -0.179, W -0.015, S -0.244, M 0.037, I -0.126, H -0.186, F -0.006, R -0.13, E -0.208, G -0.282
V2: H -0.201, Y -0.152, E -0.019, D -0.301, W -0.137, F -0.024, S -0.019, G -0.001, P -0.244, M 0.077, K 0.017, L 0.03, N -0.136, R -0.041
Q10: F -0.244, M 0.082, N -0.128, S -0.155, P -0.158, C -0.343, H -0.228, Y -0.313, E -0.214, V -0.164, R -0.038, A -0.23, D 0.005, L -0.018, K 0.07
E13: Q -0.248, H -0.155, V -0.235, I -0.139, N -0.116, P -0.135, S -0.129, Y -0.08, K -0.101, W -0.357, A -0.072, T -0.144, D 0.117, M -0.008, C -0.205, R -0.101, L -0.138, F -0.182, G -0.2
L15: F -0.157, N -0.184, S -0.087, G -0.113, M 0.053, K 0.029, T -0.343, C -0.123, I -0.084, D -0.211, R -0.069, V -0.154, Y -0.124, W -0.338, A 0.038
K17: F -0.267, V -0.169, L -0.087, P -0.411, N -0.011, Y -0.276, G -0.234, A -0.086, S -0.208, C -0.2, W -0.269, R -0.089, I -0.292, D -0.175, Q 0, M -0.09, H -0.382
E6: S -0.095, N -0.055, V -0.191, Y -0.158, F -0.192, R -0.162, W -0.173, D 0.096, G -0.111, I -0.196, M -0.192, T -0.129, C -0.231, H -0.142, K -0.035, Q -0.258, A -0.123
E1: N -0.067, A -0.122, W -0.239, V -0.213, S -0.063, L -0.3, C 0.037, F -0.079, H -0.149, M 0.034, T -0.247, D -0.457, K -0.026, Q -0.278
K12: A -0.372, N -0.27, P -0.244, Q -0.358, T -0.271, G -0.516, H -0.354, Y -0.528, E -0.348, W -0.547, D -0.025, V -0.366, R -0.187, M -0.237, F -0.748, S -0.387
V11: M -0.162, S -0.166, L -0.27, F -0.239, K -0.081, W -0.313, D -0.065, A -0.224, I -0.18, C -0.465, T -0.171, G -0.146, R -0.125, P -0.141, N -0.153, Q -0.218, Y -0.326, H -0.23, E -0.192
L7: S -0.041, V -0.023, M 0.055, K 0.032, T -0.077, F -0.141, C -0.164, I -0.058, E 0.016, W -0.215, H -0.246, A -0.125, R -0.045, N 0.034, D -0.074, Q -0.124, P -0.103
D3: K -0.203, R -0.316, Y -0.358, C -0.279, E -0.277, G -0.253, W -0.221, M -0.163, I -0.541, F -0.139, V -0.42, N -0.001, S -0.084
R9: S -0.16, N -0.068, L -0.162, A -0.044, C -0.21, P -0.137, G -0.129, Y -0.261, M 0.006, K -0.086, H -0.358, V -0.15, D -0.21, F -0.181, T -0.135, E -0.1, W -0.385, Q -0.132
K14: W -0.094, G -0.589, R -0.062, T 0.077, F 0.102, A -0.064, P -0.208, H -0.009, S -0.154, D -0.55, N -0.249, Q -0.012, M 0.066, I -0.022, E -0.073, L 0.009, Y -0.045, V -0.03
